Measured values as given in US12281147.

How the values were obtained:
human IL-21R (human) [1] = target: human IL-21R (human) (UniProt Q9HBE5); experiment: AlphaSeq yeast mating assay, pH 6 media
human IL-21R (human) [2] = target: human IL-21R (human) (UniProt Q9HBE5); experiment: AlphaSeq yeast mating assay, pH 5 media
human IL-21R (human) [3] = target: human IL-21R (human) (UniProt Q9HBE5); experiment: AlphaSeq yeast mating assay, unbuffered media
human IL-21R (human) [4] = target: human IL-21R (human) (UniProt Q9HBE5); experiment: AlphaSeq yeast mating assay, pH 7 media
[5] = target: wild-type human IL-21R (human) (UniProt Q9HBE5); experiment: AlphaSeq yeast mating assay, pH 5 media
[6] = target: wild-type human IL-21R (human) (UniProt Q9HBE5); experiment: AlphaSeq yeast mating assay, unbuffered media
[7] = target: wild-type human IL-21R (human) (UniProt Q9HBE5); experiment: AlphaSeq yeast mating assay, pH 6 media
[8] = target: human interleukin 21 receptor (IL-21R) (human) (UniProt Q9HBE5); experiment: AlphaSeq yeast mating, unbuffered media
[9] = target: human interleukin 21 receptor (IL-21R) (human) (UniProt Q9HBE5); experiment: AlphaSeq yeast mating, pH 5 media
[10] = target: human interleukin 21 receptor (IL-21R) (human) (UniProt Q9HBE5); experiment: AlphaSeq yeast mating, pH 6 media
[11] = target: recombinant human IL-21R His tag (Acro Biosystems) (human) (UniProt Q9HBE5); experiment: BLI

| Substance | Kd (human IL-21R (human) [1]) | Kd (human IL-21R (human) [3]) | Kd (human IL-21R (human) [4]) | other results |
| --- | --- | --- | --- | --- |
| IL-21_A112P (from UniProt Q9HBE4 32-152) (ligand) | 0.021 µM | 1 µM | 0.08 µM | Kd (human IL-21R (human) [2]): 0.058 µM |
| IL-21_A112R (from UniProt Q9HBE4 32-152) (ligand) |  |  |  | Kd [5]: 0.039 µM; Kd [6]: 7.9 µM |
| IL-21_D33Q (from UniProt Q9HBE4 32-152) (ligand) |  |  |  | Kd [7]: 0.021 µM; Kd [5]: 0.084 µM; Kd [6]: 7.5 µM |
| IL-21_D33T (from UniProt Q9HBE4 32-152) (ligand) |  |  |  | Kd [8]: 15 µM |
| IL-21_D44A (from UniProt Q9HBE4 32-152) (ligand) | 0.052 µM | 240 µM | 0.24 µM | Kd (human IL-21R (human) [2]): 0.14 µM |
| IL-21_D44N (from UniProt Q9HBE4 32-152) (ligand) |  |  |  | Kd [9]: 1.2 µM; Kd [8]: 60 µM; Kd [10]: 0.092 µM |
| IL-21_E59S (from UniProt Q9HBE4 32-152) (ligand) |  |  |  | Kd [7]: 0.016 µM; Kd [5]: 0.041 µM |
| IL-21_E68K (from UniProt Q9HBE4 32-152) (ligand) |  |  |  | Kd [5]: 0.027 µM; Kd [6]: 3.3 µM |
| IL-21_E68R (from UniProt Q9HBE4 32-152) (ligand) |  |  |  | Kd [7]: 0.016 µM; Kd [5]: 0.04 µM; Kd [6]: 6.3 µM |
| IL-21_E72I (from UniProt Q9HBE4 32-152) (ligand) |  |  |  | Kd [7]: 0.015 µM; Kd [6]: 4.7 µM |
| IL-21_E72T (from UniProt Q9HBE4 32-152) (ligand) | 0.027 µM | 2.8 µM | 0.057 µM |  |
| IL-21_F60H (from UniProt Q9HBE4 32-152) (ligand) | 0.015 µM | 2.4 µM | 0.035 µM | Kd (human IL-21R (human) [2]): 0.062 µM |
| IL-21_F79E (from UniProt Q9HBE4 32-152) (ligand) | 7 µM | 110 µM | 6.9 µM | Kd (human IL-21R (human) [2]): 59 µM |
| IL-21_F79Y (from UniProt Q9HBE4 32-152) (ligand) | 2 µM | 330 µM | 0.53 µM | Kd (human IL-21R (human) [2]): 72 µM |
| IL-21_I37K (from UniProt Q9HBE4 32-152) (ligand) | 0.19 µM | 95 µM | 0.12 µM | Kd (human IL-21R (human) [2]): 3.3 µM |
| IL-21_I37S (from UniProt Q9HBE4 32-152) (ligand) | 0.53 µM | 240 µM | 0.32 µM | Kd (human IL-21R (human) [2]): 16 µM |
| IL-21_I37V (from UniProt Q9HBE4 32-152) (ligand) |  |  |  | Kd [5]: 0.058 µM; Kd [6]: 3.2 µM |
| IL-21_I43M (from UniProt Q9HBE4 32-152) (ligand) |  |  |  | Kd [7]: 0.027 µM; Kd [5]: 0.11 µM; Kd [6]: 3.5 µM |
| IL-21_I45A (from UniProt Q9HBE4 32-152) (ligand) |  |  |  | Kd [8]: 8.4 µM; Kd [10]: 0.025 µM |
| IL-21_I45G (from UniProt Q9HBE4 32-152) (ligand) | 5 µM | 330 µM | 1.2 µM |  |
| IL-21_I96D (from UniProt Q9HBE4 32-152) (ligand) | 60 µM | 580 µM | 35 µM |  |
| IL-21_I96P (from UniProt Q9HBE4 32-152) (ligand) | 5.7 µM | 270 µM | 3 µM |  |
| IL-21_K131M (from UniProt Q9HBE4 32-152) (ligand) |  |  |  | Kd [8]: 27 µM |
| IL-21_L42H (from UniProt Q9HBE4 32-152) (ligand) | 67 µM | 550 µM | 5.4 µM |  |

| Substance | Kd (human IL-21R (human) [1]) | Kd (human IL-21R (human) [3]) | Kd (human IL-21R (human) [4]) | other results |
| --- | --- | --- | --- | --- |
| IL-21_L56F (from UniProt Q9HBE4 32-152) (ligand) |  | 240 µM | 0.24 µM | Kd (human IL-21R (human) [2]): 54 µM |
| IL-21_L120H (from UniProt Q9HBE4 32-152) (ligand) |  |  |  | Kd [9]: 0.034 µM |
| IL-21_L152H (from UniProt Q9HBE4 32-151) (ligand) |  |  |  | Kd [7]: 0.012 µM; Kd [5]: 0.026 µM; Kd [6]: 4.4 µM |
| IL-21_M36T (from UniProt Q9HBE4 32-152) (ligand) |  |  |  | Kd [5]: 0.11 µM; Kd [6]: 3.1 µM |
| IL-21_M39G (from UniProt Q9HBE4 32-152) (ligand) | 31 µM | 240 µM | 7.8 µM | Kd (human IL-21R (human) [2]): 150 µM |
| IL-21_N54K (from UniProt Q9HBE4 32-152) (ligand) |  |  |  | Kd [5]: 0.19 µM; Kd [6]: 8 µM |
| IL-21_N70H (from UniProt Q9HBE4 32-152) (ligand) |  |  |  | Kd [7]: 0.02 µM; Kd [6]: 4.4 µM |
| IL-21_P62S (from UniProt Q9HBE4 32-152) (ligand) |  | 2.8 µM | 0.027 µM | Kd (human IL-21R (human) [2]): 0.1 µM |
| IL-21_P62V (from UniProt Q9HBE4 32-152) (ligand) |  | 110 µM | 0.12 µM | Kd (human IL-21R (human) [2]): 11 µM |
| IL-21_P107Y (from UniProt Q9HBE4 32-152) (ligand) |  |  |  | Kd [7]: 0.058 µM; Kd [5]: 0.12 µM; Kd [6]: 6.5 µM |
| IL-21_Q32K (from UniProt Q9HBE4 33-152) (ligand) | 0.012 µM | 2.7 µM | 0.028 µM | Kd (human IL-21R (human) [2]): 0.027 µM |
| IL-21_Q145H (from UniProt Q9HBE4 32-152) (ligand) |  |  |  | Kd [9]: 1 µM; Kd [8]: 32 µM; Kd [10]: 0.054 µM |
| IL-21_Q150D (from UniProt Q9HBE4 32-152) (ligand) | 0.021 µM | 0.96 µM | 0.059 µM | Kd (human IL-21R (human) [2]): 0.056 µM |
| IL-21_R34Q (from UniProt Q9HBE4 32-152) (ligand) | 0.035 µM | 1.1 µM | 0.12 µM | Kd (human IL-21R (human) [2]): 0.2 µM |
| IL-21_R34Y (from UniProt Q9HBE4 32-152) (ligand) |  |  |  | Kd [7]: 0.35 µM; Kd [5]: 6.7 µM; Kd [6]: 3.4 µM |
| IL-21_R105A (from UniProt Q9HBE4 32-152) (ligand) |  | 270 µM | 20 µM | Kd (human IL-21R (human) [2]): 260 µM |
| IL-21_R139S (from UniProt Q9HBE4 32-152) (ligand) |  |  |  | Kd [5]: 0.081 µM; Kd [6]: 3 µM |
| IL-21_S77R (from UniProt Q9HBE4 32-152) (ligand) |  |  |  | Kd [8]: 46 µM |
| IL-21_S109M (from UniProt Q9HBE4 32-152) (ligand) | 0.43 µM | 2.5 µM | 0.081 µM |  |
| IL-21_S109R (from UniProt Q9HBE4 32-152) (ligand) |  |  |  | Kd [7]: 0.015 µM; Kd [5]: 0.036 µM; Kd [6]: 6 µM |
| IL-21_S142H (from UniProt Q9HBE4 32-152) (ligand) |  |  |  | Kd [9]: 0.051 µM; Kd [8]: 11 µM |
| IL-21_V46K (from UniProt Q9HBE4 32-152) (ligand) |  | 730 µM | 28 µM | Kd (human IL-21R (human) [2]): 340 µM |
| IL-21_V46Q (from UniProt Q9HBE4 32-152) (ligand) | 260 µM | 1000 µM | 71 µM |  |
| IL-21_V46T (from UniProt Q9HBE4 32-152) (ligand) |  | 640 µM | 0.053 µM |  |

| Substance | Kd (human IL-21R (human) [1]) | Kd (human IL-21R (human) [3]) | Kd (human IL-21R (human) [4]) | other results |
| --- | --- | --- | --- | --- |
| IL-21_V53A (from UniProt Q9HBE4 32-152) (ligand) |  | 1.1 µM | 0.056 µM |  |
| IL-21_V53E (from UniProt Q9HBE4 32-152) (ligand) |  |  |  | Kd [8]: 31 µM |
| IL-21_V53H (from UniProt Q9HBE4 32-152) (ligand) |  |  |  | Kd [8]: 46 µM |
| IL-21_V53N (from UniProt Q9HBE4 32-152) (ligand) |  | 560 µM | 0.99 µM |  |
| IL-21_V53S (from UniProt Q9HBE4 32-152) (ligand) | 0.02 µM | 1.4 µM | 0.056 µM | Kd (human IL-21R (human) [2]): 0.047 µM |
| IL-21_V53T (from UniProt Q9HBE4 32-152) (ligand) |  |  |  | Kd [9]: 9.6 µM; Kd [8]: 30 µM |
| IL-21_V57L (from UniProt Q9HBE4 32-152) (ligand) |  | 2.7 µM | 0.088 µM |  |
| IL-21_V98K (from UniProt Q9HBE4 32-152) (ligand) | 0.094 µM | 150 µM | 0.25 µM |  |
| IL-21_W73G (from UniProt Q9HBE4 32-152) (ligand) |  | 150 µM | 0.33 µM | Kd (human IL-21R (human) [2]): 57 µM |
| IL-21_W73K (from UniProt Q9HBE4 32-152) (ligand) | 30 µM | 890 µM | 10 µM |  |
| IL-21_W73Y (from UniProt Q9HBE4 32-152) (ligand) |  |  |  | Kd [7]: 0.085 µM; Kd [5]: 0.19 µM |
| IL-21_Y52H (from UniProt Q9HBE4 32-152) (ligand) |  | 69 µM | 0.11 µM | Kd (human IL-21R (human) [2]): 4.4 µM |
| IL-21_Y52N (from UniProt Q9HBE4 32-152) (ligand) |  | 110 µM | 0.24 µM |  |
| IL-21_human_D44P Fc fusion protein (from UniProt Q9HBE4 30-162) |  |  |  | Kd [11]: 1.36 µM |
| IL-21_human_F76M Fc fusion protein (from UniProt Q9HBE4 30-162) |  |  |  | Kd [11]: 0.0118 µM |
| IL-21_human_F79P Fc fusion protein (from UniProt Q9HBE4 30-162) |  |  |  | Kd [11]: 0.0111 µM |
| IL-21_human_I45G Fc fusion protein (from UniProt Q9HBE4 30-162) |  |  |  | Kd [11]: 0.012 µM |
| IL-21_human_P108G Fc fusion protein (from UniProt Q9HBE4 30-162) |  |  |  | Kd [11]: 0.029 µM |
| IL-21_human_R38K Fc fusion protein (from UniProt Q9HBE4 30-162) |  |  |  | Kd [11]: 0.313 µM |
| IL-21_human_V53N Fc fusion protein (from UniProt Q9HBE4 30-162) |  |  |  | Kd [11]: 0.0871 µM |
| IL-21_human_V53T Fc fusion protein (from UniProt Q9HBE4 30-162) |  |  |  | Kd [11]: 0.00786 µM |
| IL-21_human_W73V Fc fusion protein (from UniProt Q9HBE4 30-162) |  |  |  | Kd [11]: 0.0063 µM |
